The results in this text go back to US20170145092A1 (CHINA SYNTHETIC RUBBER, published 2017).

The target in this assay is T1, recombinant PLVAP51-442 protein (human, UniProt Q9BX97 51-442).
T1 construct: also called recombinant PLVAP protein; recombinant human PLVAP protein
T1 sequence: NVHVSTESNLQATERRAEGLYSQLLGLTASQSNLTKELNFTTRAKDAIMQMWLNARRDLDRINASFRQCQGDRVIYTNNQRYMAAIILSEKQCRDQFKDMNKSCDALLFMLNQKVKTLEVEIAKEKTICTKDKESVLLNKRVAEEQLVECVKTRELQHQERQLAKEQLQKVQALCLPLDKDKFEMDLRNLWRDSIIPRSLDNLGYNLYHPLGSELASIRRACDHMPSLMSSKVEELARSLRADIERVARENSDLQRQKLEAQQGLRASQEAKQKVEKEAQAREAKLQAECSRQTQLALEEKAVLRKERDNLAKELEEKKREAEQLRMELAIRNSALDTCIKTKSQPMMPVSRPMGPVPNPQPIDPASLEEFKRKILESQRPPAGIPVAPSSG
Briefly: ANTQ300 quartz crystal microbalance. As for the experimental part:
Binding affinities of KFCC-GY4 and KFCC-GY5 anti-PLVAP monoclonal antibodies were measured at the ANT Technology Co., Ltd. (Taipei, Taiwan) using ANTQ300 quartz crystal microbalance technology (Lin S., et al. J Immunol Methods 239:121-124 (2000)).

B1: KFCC-GY5 monoclonal antibody (antibody, V domains shown)
VH: QVQLQQPGAELVRPGASVKLSCKASGYTFTSNYINWVKQRPGQGLEWIGNIYPSDGFTNYNQKFKDRATLTVDKSSSTAYMQLSSPTSEDSAVYYCTRNFDVWGAGTTVTVSS
VL: DVVMTQTPLSLPVSLGDQASISCRSSQSLVHSNGNTYLQWYLQKPGQSPKLLIYTVSNRFSGVPDRFSGSGSGPDFTLKISRVEAEDLGVYFCSQSTHVPFTFGSGTKLEIK
notes: Mouse monoclonal antibody from a hybridoma, purified by Protein G; also called KFCC-GY5 mAb; KFCC-GY5 monoclonal anti-PLVAP antibody
For the molecule B1, the Kd came out at 41 nM.

B2: KFCC-GY4 monoclonal antibody (antibody, V domains shown)
VH: EVQLQQSGAEFVRSGASVKLSCTASGFNIKDYYIHWVKQRPEQGLEWIGWIDPENGDIEYAPKFQGKATMTADTSSNTAYLQFSSLTSEDTAVYYCLYQEGSWGQGTTLTVSS
VL: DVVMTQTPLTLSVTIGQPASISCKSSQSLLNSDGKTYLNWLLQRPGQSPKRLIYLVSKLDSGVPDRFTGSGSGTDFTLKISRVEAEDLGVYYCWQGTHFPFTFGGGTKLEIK
notes: Mouse monoclonal antibody from a hybridoma, purified by Protein G; also called KFCC-GY4 mAb; KFCC-GY4 monoclonal anti-PLVAP antibody
In the case of B2, the equilibrium dissociation constant (Kd) was determined as 60 nM.

For orientation: Kd means a measure of binding affinity in units of concentration.
